Data published in patent publication US20220175920A1 (INSERM INSTITUT NATIONAL DE LA SANTE ET DE LA RECHERCHE …, published 2022).

What was measured:
[1] = target: T1, human CD40 ectodomain fused to FAS transmembrane and intracellular domains, on CHO cells (human); assay: flow cytometry, stably transfected CHO cells, 1 h on ice, goat anti-human IgG-PE, % of events in gate P1 [panel WT CD40-FAS CHO]
T1 construct: also called CD40-FAS; WT CD40-FAS CHO

[2] = target: T2, cohesin-human CD40 ectodomain protein (P3398) (human); assay: SPR (SensiQ Pioneer), hIgG4 mAb captured on Protein A/G, cohesin-human CD40 ectodomain in solution
T2 construct: SPR analyte; also called soluble human CD40 ectodomain; liquid phase soluble human CD40 ectodomain; not shown: cohesin domain of P3398 and its junction to CD40
T2 sequence (chain, as listed by the source limits assumed): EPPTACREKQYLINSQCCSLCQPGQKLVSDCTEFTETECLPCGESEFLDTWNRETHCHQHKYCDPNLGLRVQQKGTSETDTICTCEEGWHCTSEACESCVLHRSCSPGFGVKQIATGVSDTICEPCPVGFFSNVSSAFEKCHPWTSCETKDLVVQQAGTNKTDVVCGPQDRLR

[3] = target: CD40 R27A FAS (mutated CD40 ectodomain fused to FAS) on CHO cells (human); assay: flow cytometry, stably transfected CHO cells, 1 h on ice, goat anti-human IgG-PE, % of events in gate P1 [panel CD40 R27A FAS CHO]
Chain of CD40 R27A FAS (mutated CD40 ectodomain fused to FAS) on CHO cells (human) (chain, as listed by the source R27A R27A): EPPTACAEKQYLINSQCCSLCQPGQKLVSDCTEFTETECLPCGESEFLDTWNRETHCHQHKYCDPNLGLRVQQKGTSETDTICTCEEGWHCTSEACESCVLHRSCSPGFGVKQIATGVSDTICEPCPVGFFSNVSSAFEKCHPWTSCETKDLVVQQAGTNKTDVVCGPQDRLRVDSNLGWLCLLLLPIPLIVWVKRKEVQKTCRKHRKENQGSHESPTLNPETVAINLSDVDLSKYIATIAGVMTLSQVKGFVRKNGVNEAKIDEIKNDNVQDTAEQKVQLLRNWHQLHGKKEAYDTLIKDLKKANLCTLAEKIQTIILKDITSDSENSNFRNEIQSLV

[4] = target: T3, human CD40 on cells (B cells, MDDCs, stably transfected CHO cells) (human, UniProt P25942 21-277); assay: flow cytometry, stably transfected CHO cells, 1 h on ice, goat anti-human IgG-PE, % of events in gate P1 [panel CD40 CHO]
T3 construct: also called human CD40-CHO cells; cell surface CD40
T3 sequence (P25942 21-277): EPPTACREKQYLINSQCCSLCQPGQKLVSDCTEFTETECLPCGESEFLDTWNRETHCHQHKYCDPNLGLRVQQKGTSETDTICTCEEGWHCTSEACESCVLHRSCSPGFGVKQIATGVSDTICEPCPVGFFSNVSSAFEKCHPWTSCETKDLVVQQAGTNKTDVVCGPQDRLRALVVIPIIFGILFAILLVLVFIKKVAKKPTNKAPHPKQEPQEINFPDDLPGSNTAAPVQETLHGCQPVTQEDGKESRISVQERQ

[5] = target: T3, human CD40 on cells (B cells, MDDCs, …); assay: cell-based or functional assay
[6] = target: T1, human CD40 ectodomain fused to FAS …; assay: cell-based or functional assay
[7] = target: CD40 E28A FAS (mutated CD40 ectodomain fused to FAS) on CHO cells (human); assay: flow cytometry, stably transfected CHO cells, 1 h on ice, goat anti-human IgG-PE, % of events in gate P1 [panel CD40 E28A FAS CHO]
Chain of CD40 E28A FAS (mutated CD40 ectodomain fused to FAS) on CHO cells (human) (chain, as listed by the source E28A E28A): as the sequence (chain, as listed by the source R27A R27A) above, with A7R, E8A counted along it

[8] = target: T3, human CD40 on cells (B cells, MDDCs, …); assay: cell-based or functional assay; remark: listed apart in the source
[9] = target: T2, cohesin-human CD40 ectodomain protein …; assay: SPR
[10] = target: T4, human CD40 ectodomain mouse Fc fusion protein (human, UniProt P25942 21-193); assay: competition flow cytometry: human IgG4 mAb titrated into 2 ug/ml human CD40 ectodomain-mouse Fc, 1 h on ice, then added to human CD40L-transfected L cells; cell-bound CD40-Fc detected with anti-IgG-PE; blocked ligand: CD40L on L cells [right panel]
T4 construct: a human Fc version was used with the mouse mAbs; also called soluble CD40

[11] = target: T4, human CD40 ectodomain mouse Fc fusion …; assay: competition, flow cytometry: mAb pre-incubated with CD40 ectodomain-Fc, then CD40L-transfected L cells

T1 sequence (chain, as listed by the source limits assumed): as the sequence (chain, as listed by the source R27A R27A) above, with A7R counted along it

Binder | EC50 (read off the curve) [1] | Kd [2] | koff [2] | kon [2] | EC50 (read off the curve) [3] | EC50 (read off the curve) [4] | EC50 (nM) cytokines: 50% of maximum cytokine secretion by MDDCs [5] | EC50/EC50 CP, MDDC cytokine secretion [5] | EC50 w/sCD40L (nM): MDDC cytokine secretion with constant suboptimal soluble human CD40L [5] | Δ w/sCD40L (fold): MDDC cytokine secretion EC50 [5] | EC50 of killing of CD40-FAS CHO cells (loss of MTT reduction) [6] | EC50 (read off the curve) [7] | EC50 (nM) B cell: dose for 50% of maximum B cell proliferation [8] | EC50/EC50 CP, B cell proliferation [8] | EC50 w/sCD40L (nM): B cell proliferation with constant 6 nM soluble human CD40L [8] | Δ w/sCD40L (fold): fold difference in B cell proliferation EC50 with constant 6 nM soluble human CD40L [8] | Kd [9] | IC50 (read off the curve) [10] | binding result [3] | fold higher antibody level required to partially block CD40 binding to CD40L, against the stoichiometric amounts of 12B4 and 12E12 [11]
anti-CD40 11B6 human IgG4 antibody (antibody, V domains shown, also called mAb1 [11B6 VH/VkV2]; PAB3405) VH: EVQLVQSGAEVKKPGASVKISCKASGYSFTGYYMHWVKQAHGQGLEWIGRINPYNGATSYNQNFKDRATLTVDKSTSTAYMELSSLRSEDTAVYYCAREDYVYWGQGTTVTVSS VL: DVVMTQSPLSLPVTLGQPASISCRSSQSLVHSNGNTYLHWYQQRPGQSPRLLIYKVSNRFSGVPDRFSGSGSGTDFTLKISRVEAEDVGVYFCSQSTHVPWTFGGGTKLEIKR | ~0.0003 nM | 217 nM | 0.064 s⁻¹ | 300000 M⁻¹ s⁻¹ | ~0.0003 nM | ~0.0002 nM | > 10 nM | > 1000 ratio | ≥ 0.1 nM | > 1000 fold | ~2.5 nM | ~0.0002 nM | ≥ 10 nM | ≥ 100 ratio | ≥ 0.1 nM | ≥ 100 fold | – | – | – | –
anti-CD40 12E12 human IgG4 antibody (antibody, V domains shown, also called mAb6 [12E12]; anti-CD40 12E12 IgG4) VH: EVQLVESGGGLVQPGGSLKLSCATSGFTFSDYYMYWVRQAPGKGLEWVAYINSGGGSTYYPDTVKGRFTISRDNAKNTLYLQMNSLRAEDTAVYYCARRGLPFHAMDYWGQGTLVTVSS VL: DIQMTQSPSSLSASVGDRVTITCSASQGISNYLNWYQQKPGKAVKLLIYYTSILHSGVPSRFSGSGSGTDYTLTISSLQPEDFATYYCQQFNKLPPTFGGGTK | ~0.0005 nM | 33 nM | 0.0046 s⁻¹ | 150000 M⁻¹ s⁻¹ | ~0.0003 nM | ~0.0003 nM | > 10 nM | > 1000 ratio | > 10 nM | ~0 fold | ~1 nM | ~0.0002 nM | – | ~10 ratio | – | ~0 fold | 28 nM | ~0.5 µg/mL | – | –
anti-CD40 24A3 human IgG4 antibody (antibody, V domains shown, also called mAb4 [24A3]) VH: DVQLQESGPDLVKPSQSLSLTCTVTGYSITSDYSWHWIRQFPGNKLEWMGYIYYSGSTNYNPSLKSRISITRDTSKNQFFLQLNSVTTEDSATYFCARFYYGYSFFDYWGQGTTLTVSS VL: QIVLTQSPAFMSASPGEKVTMTCSASSSVSYMHWYQQKSGTSPKRWIYDTSKLASGVPARFSGSGSGTSYSLTISSMEAEDAATYYCQQWSSNPLTFGAGTK | – | 97 nM | 0.008 s⁻¹ | 83000 M⁻¹ s⁻¹ | – | – | > 10 nM | > 1000 ratio | ≥ 10 nM | > 1000 fold | – | – | > 10 nM | ≥ 1000 ratio | – | ~100 fold | – | – | – | –
anti-CD40 12B4 human IgG4 antibody (antibody, V domains shown, also called mAb3 [12B4]) VH: EVQLQQSGPELVKPGASVKMSCKASGYTFTDYVLHWVKQKPGQGLEWIGYINPYNDGTKYNEKFKGKATLTSDKSSSTAYMELSSLTSEDSAVYYCARGYPAYSGYAMDYWGQGTSVTVSS VL: DIQMTQTTSSLSASLGDRVTISCRASQDISNYLNWYQQKPDGTVKLLIYYTSRLHSGVPSRFSGSGSGTDYSLTISNLEQEDIATYFCHHGNTLPWTFGGGTK | – | 100 nM | 0.027 s⁻¹ | 250000 M⁻¹ s⁻¹ | – | – | > 10 nM | ≥ 100 ratio | – | ~0 fold | – | – | – | ~10 ratio | – | ~0 fold | – | ~0.2 µg/mL | – | –
CP-870,893 formatted as human IgG4 (antibody, V domains shown, also called mAb5 [CP870893]; anti-CD40 CP) VH: not shown VL: DIQMTQSPSSVSASVGDRVTITCRASQGIYSWLAWYQQKPGKAPNLLIYTASTLQSGVPSRFSGSGSGTDFTLTISSLQPEDFATYYCQQANIFPLTFGGGTK | ~0.004 nM | 71 nM | 0.0022 s⁻¹ | 46000 M⁻¹ s⁻¹ | – | ~0.003 nM | ~0.1 nM | 1 ratio | ≥ 0.01 nM | ~100 fold | – | ~0.01 nM | – | 1 ratio | – | ~0 fold | – | – | no binding | > 20 fold
